Experiment [1] addresses biotinylated anti-human CD3ε antibody (capture surface of Example 6). Description: SPR Biacore T200; IgG 1 ug/ml over captured biotinylated anti-human CD3ε antibody, normalised to anti-human IgG surface and to the unstressed sample; sample stressed 14 d/40° C. pH 6.0. On the technique in general: SPR reads the build-up and loss of mass on a sensor chip optically.
Experiment [2] shares this target. As to the kind of experiment: SPR Biacore T200; IgG 1 ug/ml over captured biotinylated anti-human CD3ε antibody, normalised to anti-human IgG surface and to the unstressed sample; sample stressed 14 d/37° C. pH 7.4.

Positions count from the first letter of the chain named.

B1: P1AF1284 H2L2 anti-idiotypic IgG1 (antibody, V domains shown)
VH: QVQLVQSGSELKKPGASVKVSCKASGYTVTDYSMNWVRQAPGQGLEWMGWINTETGEPRYTDDFTGRFVFSLDTSVSTAYLQISSLKAEDTAVYYCAREGDYDVFDYWGQGTLVTVSS
VL: DIVMTQSPDSLAVSLGERATINCKSSKSVSTSSYSYMHWYQQKPGQPPKLLIKYVSYLESGVPDRFSGSGSGTDFTLTISSLQAEDVAVYYCQHSREFPYTFGQGTKLEIK
As for B1, the Relative active concentrations (%) in experiment [1] was found to be 98%; in experiment [2] it was 93%.

B2: P1AF1287 H7L5 anti-idiotypic IgG1 (antibody, V domains shown)
VH: QVQLVQSGAEVKKPGASVKVSCKASGYTVTDYSMNWVRQAPGQGLEWMGWINTETGEPRYTDDFKGRVTMTRDTSISTAYMELSRLRSDDTAVYYCAREGDYDVFDYWGQGTLVTVSS
VL: B1 VL with K24R, S25A, K53Y
For B2, the Relative active concentrations (%) is 98% in experiment [1] and 80% in experiment [2].

B3: P1AF1281 H1L1 anti-idiotypic IgG1 (antibody, V domains shown)
VH: B1 VH with T65K
VL: B1 VL with K24R, S25A
For B3, the Relative active concentrations (%) in experiment [1] is 99%; in experiment [2] it was 93%.

B4: P1AF1283 H1L2 anti-idiotypic IgG1 (antibody, V domains shown)
VH: B1 VH with T65K
VL: B1 VL
With B4, the values for the Relative active concentrations (%) in experiment [1] and in experiment [2] were 97% and 94%, respectively.

B5: P1AF1286 H3L3 anti-idiotypic IgG1 (antibody, V domains shown)
VH: B1 VH with D62Q, D63G, T65K
VL: B1 VL with K24R, S25A, H94Q
Turning to B5, the values for the Relative active concentrations (%) in experiment [1] and in experiment [2] were 97% and 87%, respectively.

B6: P1AF1285 H3L2 anti-idiotypic IgG1 (antibody, V domains shown)
VH: B1 VH with D62Q, D63G, T65K
VL: B1 VL
Turning to B6, the Relative active concentrations (%) in experiment [1] turned out to be 97%; in experiment [2] it was 94%.

For the origin of these results see patent publication US20260035462A1.
